# Paper PMC12714728 (npj Viruses, 2025)
# What was measured:
# cyclic peptide CP10 = assay: SPR; settings: both partners purified
# cyclic peptide CP9 = assay: SPR; settings: both partners purified
binder,measurement,setting,value
"hemagglutinin (HA) ectodomain of A/New Caledonia/20/1999 (H1N1) (domain or fragment, biotin on the BirA site) not shown",koff,cyclic peptide CP10,0.378 s⁻¹
same,kon,cyclic peptide CP10,50300 M⁻¹ s⁻¹
same,koff,cyclic peptide CP9,0.351 s⁻¹
same,kon,cyclic peptide CP9,108000 M⁻¹ s⁻¹
